Test results from paper PMC2796084 (Biochemistry, 2009).

Target: the molecule itself
Test: tryptophan fluorescence

B1: FtsZ-L68W (natural protein, E. coli, UniProt P0A9A6 1-383, looked up)
chain: MFEPMELTNDAVIKVIGVGGGGGNAVEHMVRERIEGVEFFAVNTDAQALRKTAVGQTIQIGSGITKGWGAGANPEVGRNAADEDRDALRAALEGADMVFIAAGMGGGTGTGAAPVVAEVAKDLGILTVAVVTKPFNFEGKKRMAFAEQGITELSKHVDSLITIPNDKLLKVLGRGISLLDAFGAANDVLKGAVQGIAELITRPGLMNVDFADVRTVMSEMGYAMMGSGVASGEDRAEEAAEMAISSPLLEDIDLSGARGVLVNITAGFDLRLDEFETVGNTIRAFASDNATVVIGTSLDPDMNDELRVTVVATGIGMDKRPEITLVTNKQVQQPVMDRYQQHGMAPLTQEQKPVAKVVNDNAPQTAKEPDYLDIPAFLRKQAD
binding result: binds
